Residue numbers refer to the chain shown, from its start. Where two headings read alike, the source gives them in different places. Values belong to the binder of their own block, whether it stands above or below them.
Legend:
human NPR3 = biological target: T1, human NPR3 (human, UniProt P17342); assay: ELISA
T1 chain: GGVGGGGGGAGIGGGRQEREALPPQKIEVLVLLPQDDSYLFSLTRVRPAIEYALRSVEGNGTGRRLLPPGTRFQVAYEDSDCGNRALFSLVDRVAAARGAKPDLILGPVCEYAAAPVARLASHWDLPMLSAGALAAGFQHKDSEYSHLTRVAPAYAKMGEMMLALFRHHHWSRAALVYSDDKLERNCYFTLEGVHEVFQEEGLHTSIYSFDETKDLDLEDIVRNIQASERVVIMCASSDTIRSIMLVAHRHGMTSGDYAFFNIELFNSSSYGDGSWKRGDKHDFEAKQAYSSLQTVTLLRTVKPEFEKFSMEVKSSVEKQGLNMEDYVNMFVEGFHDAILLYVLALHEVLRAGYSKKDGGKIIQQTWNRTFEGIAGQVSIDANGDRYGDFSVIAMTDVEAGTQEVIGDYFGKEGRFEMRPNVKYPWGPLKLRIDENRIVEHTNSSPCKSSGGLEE

human NPR1-ANP complex [1] = biological target: T2, human NPR1-ANP complex (human); assay: ELISA
T2 chain 1: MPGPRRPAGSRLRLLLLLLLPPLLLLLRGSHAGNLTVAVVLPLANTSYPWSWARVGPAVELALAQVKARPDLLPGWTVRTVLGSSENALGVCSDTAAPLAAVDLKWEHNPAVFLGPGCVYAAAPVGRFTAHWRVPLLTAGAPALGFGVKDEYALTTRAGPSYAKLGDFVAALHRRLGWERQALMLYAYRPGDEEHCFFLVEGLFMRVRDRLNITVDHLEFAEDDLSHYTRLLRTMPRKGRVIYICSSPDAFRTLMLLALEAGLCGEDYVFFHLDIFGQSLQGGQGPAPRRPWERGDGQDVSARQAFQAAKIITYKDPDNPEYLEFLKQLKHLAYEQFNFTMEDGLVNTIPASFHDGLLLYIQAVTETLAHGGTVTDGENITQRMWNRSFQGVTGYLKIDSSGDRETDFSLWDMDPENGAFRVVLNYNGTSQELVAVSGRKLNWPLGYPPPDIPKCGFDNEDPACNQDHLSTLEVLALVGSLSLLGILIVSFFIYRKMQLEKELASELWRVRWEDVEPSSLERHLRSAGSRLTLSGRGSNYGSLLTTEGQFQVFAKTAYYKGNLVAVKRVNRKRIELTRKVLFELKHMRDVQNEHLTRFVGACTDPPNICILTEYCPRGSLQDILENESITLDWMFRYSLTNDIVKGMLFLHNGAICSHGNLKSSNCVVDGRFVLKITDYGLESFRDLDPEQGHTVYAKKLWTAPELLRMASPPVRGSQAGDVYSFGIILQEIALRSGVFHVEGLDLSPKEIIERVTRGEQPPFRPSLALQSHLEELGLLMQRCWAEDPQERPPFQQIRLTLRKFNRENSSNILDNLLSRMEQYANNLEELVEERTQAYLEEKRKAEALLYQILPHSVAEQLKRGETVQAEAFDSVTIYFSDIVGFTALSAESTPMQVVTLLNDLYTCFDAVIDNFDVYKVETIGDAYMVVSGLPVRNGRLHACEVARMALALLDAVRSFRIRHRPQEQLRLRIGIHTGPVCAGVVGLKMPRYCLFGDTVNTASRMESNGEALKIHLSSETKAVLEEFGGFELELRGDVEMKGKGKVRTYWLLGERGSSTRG
T2 chain 2: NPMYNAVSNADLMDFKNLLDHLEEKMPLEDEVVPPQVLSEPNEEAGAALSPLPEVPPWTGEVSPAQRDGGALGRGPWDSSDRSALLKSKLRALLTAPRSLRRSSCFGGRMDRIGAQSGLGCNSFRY

human NPR1 W74R + ANP [2] = biological target: T3, human NPR1 W74R + ANP (human); assay: ELISA
T3 chain 1: T2 chain 1 with W106R
T3 chain 2: T2 chain 2

human NPR3 + ANP = biological target: T4, human NPR3 + ANP (human, UniProt P17342); assay: ELISA
T4 chain 1: T1 chain
T4 chain 2: T2 chain 2

rat NPR1 = biological target: T5, rat NPR1 (rat); assay: ELISA
T5 chain: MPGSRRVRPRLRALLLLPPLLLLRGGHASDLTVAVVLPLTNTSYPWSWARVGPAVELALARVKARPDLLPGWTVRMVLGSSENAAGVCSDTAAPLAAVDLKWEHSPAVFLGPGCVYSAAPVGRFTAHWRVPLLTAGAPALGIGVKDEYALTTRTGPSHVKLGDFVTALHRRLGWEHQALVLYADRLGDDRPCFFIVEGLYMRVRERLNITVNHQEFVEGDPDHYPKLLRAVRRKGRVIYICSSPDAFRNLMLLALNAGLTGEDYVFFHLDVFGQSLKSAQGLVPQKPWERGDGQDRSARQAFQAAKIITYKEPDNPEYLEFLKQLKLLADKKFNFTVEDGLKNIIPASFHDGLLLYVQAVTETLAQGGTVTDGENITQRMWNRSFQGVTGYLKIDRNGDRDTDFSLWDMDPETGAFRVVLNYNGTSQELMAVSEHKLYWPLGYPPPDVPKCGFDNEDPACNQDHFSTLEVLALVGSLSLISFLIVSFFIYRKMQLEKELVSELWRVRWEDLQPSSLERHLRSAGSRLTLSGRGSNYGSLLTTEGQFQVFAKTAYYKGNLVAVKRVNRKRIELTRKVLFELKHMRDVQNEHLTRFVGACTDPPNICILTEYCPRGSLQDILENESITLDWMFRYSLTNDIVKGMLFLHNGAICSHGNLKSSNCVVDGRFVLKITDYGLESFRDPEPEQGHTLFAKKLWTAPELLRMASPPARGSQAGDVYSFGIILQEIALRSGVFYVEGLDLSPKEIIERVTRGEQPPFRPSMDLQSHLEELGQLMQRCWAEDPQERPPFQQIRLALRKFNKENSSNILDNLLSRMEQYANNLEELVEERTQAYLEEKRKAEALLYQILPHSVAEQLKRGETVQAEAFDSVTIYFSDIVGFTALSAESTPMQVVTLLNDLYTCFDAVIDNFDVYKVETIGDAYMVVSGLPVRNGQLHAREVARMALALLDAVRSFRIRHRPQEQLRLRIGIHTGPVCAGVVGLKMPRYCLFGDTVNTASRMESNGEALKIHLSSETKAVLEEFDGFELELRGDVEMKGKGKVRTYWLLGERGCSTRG

rat NPR1-ANP complex = biological target: T6, rat NPR1-ANP complex (rat); assay: ELISA
T6 chain 1: T5 chain
T6 chain 2: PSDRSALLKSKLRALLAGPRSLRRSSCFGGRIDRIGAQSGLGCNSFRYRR

human NPR1 [3] = biological target: T7, human NPR1 (human); assay: ELISA
T7 chain: T2 chain 1

human NPR1 W74R [4] = biological target: T8, human NPR1 W74R (human); assay: ELISA
T8 chain: T2 chain 1 with W106R

human NPR1-ANP complex [5] = biological target: T2, human NPR1-ANP complex; assay: SPR
human NPR1-ANP complex [6] = biological target: T2, human NPR1-ANP complex; assay: SPR
human NPR1 [7] = biological target: T7, human NPR1; assay: SPR
human NPR1 [8] = biological target: T7, human NPR1; assay: SPR
human NPR1 [9] = biological target: T7, human NPR1; assay: ELISA
human NPR1 W74R + ANP [10] = biological target: T3, human NPR1 W74R + ANP; assay: ELISA
human NPR1 W74R [11] = biological target: T8, human NPR1 W74R; assay: ELISA

binding result (human NPR3): no binding
EC50 (human NPR1-ANP complex [1]): 1.1 nM
EC50 (human NPR1 W74R + ANP [2]): 0.8 nM
binding result (human NPR3 + ANP): no binding
binding result (rat NPR1): no binding
binding result (rat NPR1-ANP complex): no binding
EC50 (human NPR1 [3]): 2.5 nM
EC50 (human NPR1 W74R [4]): 0.9 nM
B1: WW06 IgG (antibody, V domains shown)
VH: QVQLVQSGAEVKKPGESLKISCKGSGYSFTSYWIAWVRQMPGKGLEWMGRIDPDNSYTRYSPSFQGQVTISADKSISTAYLQWSSLKASDTAMYYCARWLSPGYALGEQPAGMDHWGQGTLVTVSS
VL: DIVLTQPPSVSGAPGQRVTISCTGSSSNIGAGYAVHWYQQLPGTAPKLLIYSNNKRPSGVPDRFSGSKSGTSASLAITGLQAEDEADYYCQSYDLQKSSRVFGGGTKLTVL

Kd (human NPR1-ANP complex [5]): 12 nM
Kd (human NPR1-ANP complex [6]): 12 nM
Kd (human NPR1 [7]): 5.3 nM
Kd (human NPR1 [8]): 5.3 nM
B2: WW06 FabCys (antibody, V domains shown)
VH: B1 VH
VL: B1 VL

binding result (human NPR3): no binding
binding result (human NPR1 [9]): no binding
binding result (human NPR3 + ANP): no binding
binding result (rat NPR1): no binding
binding result (human NPR1 W74R + ANP [10]): no binding
binding result (rat NPR1-ANP complex): no binding
binding result (human NPR1 W74R [11]): no binding
B3: WW01 IgG (antibody, V domains shown)
VH: QVQLLESGGGLVQPGGSLRLSCAASGFTFNTHYIHWVRQAPGKGLEWVSSISGSGSNTYYADSVKGRFTISRDNSKNTLYLQMNSLRAEDTAVYYCARERGYVYYHMFDPWGQGTLVTVSS
VL: DIVLTQSPATLSLSPGERATLSCRASQSITRNYLAWYQQKPGQAPRLLIYGASSRATGIPARFSGSGSGTDFTLTISSLEPEDFAVYYCQQHSMYPRTFGQGTKVEIK

Reference: US20230365674 (published 2023)
